Assay results taken from patent publication US20220227863A1 (BLUEFIN BIOMEDICINE, published 2022).
Where a chain is given by its changes, count along the chain named.

B1: 1E2F12H8_3D2 (antibody, V domains shown)
VH: EVQLLESGGGLVQPGGSLRLSCAASGFTFSSYAMSWVRQAPGKGLEWVSIISGSGGDTYYADSVKGRFTISRDNSKNTLYLQMNSLRAEDTAVYYCAKTDDHGDFFDYWGQGTLVTVSS
VL: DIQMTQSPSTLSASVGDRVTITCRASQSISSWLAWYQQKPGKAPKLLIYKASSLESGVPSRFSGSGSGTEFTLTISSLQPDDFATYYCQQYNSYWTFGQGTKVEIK
B2: 8E11B6 (antibody, V domains shown)
VH: QVQLEESGGGVVQPGRSLRLSCAASGFTFSSYGMHWVRQAPGKGLEWVAVIWYDGSNTYYADSVKGRFTISRDNSKNTLYLQMNSLRAEDTAVYYCARERETFFYVMDAWGQGASVTVSS
VL: DIQMTQSPSTLSASVGDRVTITCRASQSISSWLAWYQQKPGKAPKLLIYKASSLESGVPSRFSGSGSGTEFTLTISSLQPDDFAIYYCQQFNRFITFGQGTRLEIK
B3: 16B10_27D2 (antibody, V domains shown)
VH: QVQLVESGGGVVQPGRSLRLSCAASGFTFNNYGMHWVRQAPGKGLEWVAIIWNDGSNPYYADSVKGRFTISRDNSKNTLYLQMNSLRAEDTAVYYCVRDSSSWFVNYFDYWGQGTLVTVSS
VL: EIVMTQSPATLSVSPGERATLSCRASQSVNRNLAWYQQKPGQAPRLLIYGASTRATGIPASFSGSGSGTEFTLTISSLQSEDFAVYYCQHYNHWPLTFGGGTKVEIK
notes: Recombinant antibody from CHO cells
B4: 20H6_24C3 (antibody, V domains shown)
VH: QVQLQESGPGLLKPSETLSLTCTVSGGSISPYYWSWIRQPPGKGLEWIGYIYYSGNTNYNPSLQSRLTISVDTSKNQFSLKLSSVTAADTAVYYCARRGYSFGFYYGLDVWGQGTTVTVSS
VL: DIQMTQSPSSLSASVGDRVTITCRASQDISIYLAWYQQKPGKVPNLLIYLASTLQSGVPSRFSGSGSGTDFTLTISSLQPEDVATYYCQKYNSAPWTFGQGTKLEIK
notes: as for B3
B5: 6H9_27D5 (antibody, V domains shown)
VH: QVELQQSGPGLVKPSETLSLTCTVSGGSISTYFWSWTRQPPGKGLEWIGYTNYRGNTNYNPSLESRVTISVDTSKNQFSLKLSSVTAADTAVYYCARRGGYYGSGNYGGMDVWGQGTTVTVSS
VL: B4 VL with D28G, I31N, N45K, L50A, V83L, N92D
notes: as for B3
B6: 10A5_24A2 (antibody, V domains shown)
VH: QLQLQESGPGLVNPSKTLSLTCNVSGGSMSNYFWSWIRQPPGKGLEWIGYIYNSGNTNYHPSLQSRVTISVDTSKNLFSLKLTSVTAADTAVYYCARRGGYYGSGNYGGLDVWGHGTTVTVSS
VL: B4 VL with D28G, I31N, N45K, L50A, S65T, N92D, L104V
notes: as for B3
B7: 8C7_24B1 (antibody, V domains shown)
VH: QVQLQESGPGLVKPSETLSLTCTVSGGSISSYYWSWIRQPPGKGLEWIGYIHYSGSTNYNPSLKSRVTISEDTSKNQFSLKLSSVTAADTAVFYCAGRRYYYDSSGYLDYWGQGTLVTVSS
VL: B4 VL with D28G, I31N, N45K, L50A
notes: as for B3
B8: 7C12_24A6 (antibody, V domains shown)
VH: QVQLQESGPGLVNPSKTLSLTCTVSGGSISSYFWSWIRQPPGKGLEWIGYIYDSGSTNYNPSLKSRVTISVDTSKNHFSLKLSSVTAADTAVYYCARRGGYYGSGSYGGMDVWGQGTTVTVSS
VL: B4 VL with D28G, I31N, N45K, Y49S, L50A
notes: as for B3
B9: 4F4_27D3 (antibody, V domains shown)
VH: B7 VH with Y32H, H52Y, S54N, S56G, N60K, E71V, S83T, F93Y
VL: B4 VL with D28G, I31N, N45K, L50A
notes: as for B3
B10: 5E3-24B4 (antibody, V domains shown)
VH: B7 VH with Y32H, S35N, S56G, L63Q, E71V, F93Y, Y102F
VL: B4 VL with D28G, I31N, V43I, N45K, L50A
notes: as for B3
B11: 3D8D11 (antibody, V domains shown)
VH: B8 VH with N13K, K16E, D53Y, H77Q, Y102S, G103Y, S104G, G105Y, S106G, G108Y
VL: B4 VL with D28G, I31N, N45K, L50A
notes: as for B3
B12: 3H3_24B2 (antibody, V domains shown)
VH: B8 VH with V2I, S30R, S56N, S106N
VL: B4 VL with D28G, I31N, N45K, L50A
notes: as for B3
B13: 14E7_27C1 (antibody, V domains shown)
VH: B4 VH with L12V, P31S, N56S, Q64K, F102Y, F104Y, L108M
VL: B4 VL with I31N, N45K, Y49S, L50P
notes: as for B3
B14: 5A2_24A1 (antibody, V domains shown)
VH: B8 VH with S31R
VL: B4 VL with D28G, I31N, V43I, N45K, Y49S, L50A, N92D, L104V
notes: as for B3
B15: 1C4_24B3 (antibody, V domains shown)
VH: B8 VH with S7A, D53N, K64Q, T73M, S106N
VL: B4 VL with V15A, D28G, I31N, N45K, I48M, L50A, T53A, N92D, L104V
notes: Recombinant antibody from CHO cells; also called 1C4_24B4
B16: 3C4A3_7C5 (antibody, V domains shown)
VH: EVQLLESGGGLVQPGGSLRLSCAASGFTFSSYAMSWVRQAPGKGLEWVSVISGSGGSTYYADSVKGRFTISRDNSKNTLDLQMNSLRAEDTAVYYCAKLGDYYYGMDVWGQGTTVTVSS
VL: not shown
B17: 1E12H10_7A1 (antibody, V domains shown)
VH: QVQLVESGGGVVQPGRSLRLSCATSGFTFSSYGMHWVRQAPGKGLEWVALIWFDGGNQYYADSVKGRFTISRDNSKNTLYLQLNSLRAEDTAVYFCARDVISMVRGVPFDYWGQGTLVTVSS
VL: DAVVTQESALTTSPGETVTLTCRSSTGAVTTGNYANWVQEKPDHLFTGLIGGIKNRVPGVPARFSGSLIGDRAALTITGAQTEDEAIYFCALWYSNHWVFGGGTKLTVLG
B18: 11H10_27D4 (antibody, V domains shown)
VH: B17 VH with T24A, S31N, M34I, L50V, G56N, Q58K, L83M, F95Y, S102T, M103L
VL: B17 VL with L20V, G32S, K54N, V57A, R72K
notes: as for B3
B19: 17E8_27C5 (antibody, V domains shown)
VH: B17 VH with T24A, S31N, V48M, L50G, G56T, Q58K, A61I, L83M, S85N, F95Y
VL: B17 VL with G32S, K54N, V57A, R72K
notes: as for B3
B20: 17F4_27C6 (antibody, V domains shown)
VH: B17 VH with T24A, S31T, M34I, L50V, G56S, Q58K, L83M, F95Y
VL: B17 VL with G32S, K54N, R72K, L106V
notes: as for B3

molecular target: T1, cynomolgus ILT3 expressed on HEK293 cells (Macaca fascicularis (cynomolgus monkey)); assay: flow cytometry, serial antibody dilutions on live HEK293 cells expressing cynomolgus ILT3, Alexa Fluor 647 anti-human IgG secondary, MFI
T1 construct: whole, on cells; also called Macaca fascicularis ILT3 homologue; macaque ILT3 homologue
Protocol: (§1) Affinity: The affinity of antibodies to recombinant ILT3 was determined on an Octet Red™ (Pall, ForteBio) instrument. After loading reagents into a 96-well plate, the Octet Red™ with Protein A-conjugated biosensors was programmed as follows: 30 seconds for baseline #1; 45 seconds to immobilize the antibody; 30 seconds for baseline #2; 300 seconds for association of antibody to recombinant ILT3; and 300 seconds for dissociation of recombinant ILT3 from the antibody. In some cases, the antibody affinity was estimated against cynomolgus ILT3 using a flow based method. Briefly, the assay uses 3-5 fold dilutions from 100 nM to 0.1 nM of a stock antibody concentration (100 nM) diluted in flow buffer. […] Acquisition of the MFI (Median Fluorescent Intensity) was performed on a MACSQuant® Flow Cytometers (Miltenyi Biotec).

| EC50 (read off the curve) [nM] | Binder |
| --- | --- |
| ~6 | B1 |

molecular target: T2, recombinant human ILT3 ectodomain with C-terminal histidine tag (human, UniProt Q8NHJ6 22-259); assay: BLI (Octet Red), antibody on Protein A biosensors, recombinant ILT3 in solution
T2 construct: also called recombinant ILT3; hILT3; not shown: C-terminal histidine tag
T2 sequence (Q8NHJ6 22-259 D223G): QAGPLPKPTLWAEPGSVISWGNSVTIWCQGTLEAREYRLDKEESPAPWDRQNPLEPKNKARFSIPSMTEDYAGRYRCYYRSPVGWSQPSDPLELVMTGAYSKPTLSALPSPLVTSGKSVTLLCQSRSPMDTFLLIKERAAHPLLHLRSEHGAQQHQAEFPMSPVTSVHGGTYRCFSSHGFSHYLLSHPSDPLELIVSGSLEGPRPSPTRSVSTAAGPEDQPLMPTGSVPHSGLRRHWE

| Kd [nM] | Binder |
| --- | --- |
| 6 | B1 |
| 10 | B2 |
| 1 | B3 |
| 1 | B4 |
| 1 | B5 |
| 2 | B6 |
| 60 | B7 |
| 50 | B8 |
| 30 | B9 |
| 2 | B10 |
| 170 | B11 |
| 40 | B12 |
| 75 | B13 |
| 30 | B14 |
| 12 | B15 |
| 21 | B16 |
| 3 | B17 |
| 1 | B18 |
| 2 | B19 |
| 3 | B20 |

molecular target: T3, recombinant cynomolgus monkey ILT3 ectodomain with C-terminal histidine tag (cynomolgus monkey); assay: as above
T3 construct: extracellular domain; Non-native signal peptide; expressed in CHO cells
Protocol: as §1

| Kd [nM] | Binder |
| --- | --- |
| 27 | B1 |
| 56 | B16 |
| 200 | B17 |
